{"source": "patent US20070286806A1", "about": "“Methods and Compositions for Modulating a Steroid Receptor” (Mount Sinai Hospital, priority 2004, published 2007)", "molecules": {"B1": {"name": "polypyrimidine tract binding protein-associated splicing factor (protein)", "chain": "MSRDRFRSRGGGGGGFHRRGGGGGRGGLHDFRSPPPGMGLNQNRGPMGPGPGQSGPKPPIPPPPPHQQQQQPPPQQPPPQQPPPHQPPPHPQPHQQQQPPPPPQDSSKPVVAQGPGPAPGVGSAPPASSSAPPATPPTSGAPPGSGPGPTPTPPPAVTSAPPGAPPPTPPSSGVPTTPPQAGGPPPPPAAVPGPGPGPKQGPGPGGPKGGKMPGGPKPGGGPGLSTPGGHPKPPHRGGGEPRGGRQHHPPYHQQHHQGPPPGGPGGRSEEKISDSEGFKANLSLLRRPGEKTYTQRCRLFVGNLPADITEDEFKRLFAKYGEPGEVFINKGKGFGFIKLESRALAEIAKAELDDTPMRGRQLRVRFATHAAALSVRNLSPYVSNELLEEAFSQFGPIERAVVIVDDRGRSTGKGIVEFASKPAARKAFERCSEGVFLLTTTPRPVIVEPLEQLDDEDGLPEKLAQKNPMYQKERETPPRFAQHGTFEYEYSQRWKSLDEMEKQQREQVEKNMKDAKDKLESEMEDAYHEHQANLLRQDLMRRQEELRRMEELHNQEMQKRKEMQLRQEEERRRREEEMMIRQREMEEQMRRQREESYSRMGYMDPRERDMRMGGGGAMNMGDPYGSGGQKFPPLGGGGGIGYEANPGVPPATMSGSMMGSDMRTERFGQGGAGPVGGQGPRGMGPGTPAGYGRGREEYEGPNKKPRF", "notes": "expressed from transfected His-PSF vector or in vitro translated"}}, "format_in_all_cases": "cell-based", "key": {"PRA": {"target": "T1, PRA (Homo sapiens, UniProt P06401)", "T1 construct": "expressed in transfected cells; host or cells: SHM (Syrian hamster myocyte) cells", "T1 sequence (P06401 1-769 isoform P06401-2)": "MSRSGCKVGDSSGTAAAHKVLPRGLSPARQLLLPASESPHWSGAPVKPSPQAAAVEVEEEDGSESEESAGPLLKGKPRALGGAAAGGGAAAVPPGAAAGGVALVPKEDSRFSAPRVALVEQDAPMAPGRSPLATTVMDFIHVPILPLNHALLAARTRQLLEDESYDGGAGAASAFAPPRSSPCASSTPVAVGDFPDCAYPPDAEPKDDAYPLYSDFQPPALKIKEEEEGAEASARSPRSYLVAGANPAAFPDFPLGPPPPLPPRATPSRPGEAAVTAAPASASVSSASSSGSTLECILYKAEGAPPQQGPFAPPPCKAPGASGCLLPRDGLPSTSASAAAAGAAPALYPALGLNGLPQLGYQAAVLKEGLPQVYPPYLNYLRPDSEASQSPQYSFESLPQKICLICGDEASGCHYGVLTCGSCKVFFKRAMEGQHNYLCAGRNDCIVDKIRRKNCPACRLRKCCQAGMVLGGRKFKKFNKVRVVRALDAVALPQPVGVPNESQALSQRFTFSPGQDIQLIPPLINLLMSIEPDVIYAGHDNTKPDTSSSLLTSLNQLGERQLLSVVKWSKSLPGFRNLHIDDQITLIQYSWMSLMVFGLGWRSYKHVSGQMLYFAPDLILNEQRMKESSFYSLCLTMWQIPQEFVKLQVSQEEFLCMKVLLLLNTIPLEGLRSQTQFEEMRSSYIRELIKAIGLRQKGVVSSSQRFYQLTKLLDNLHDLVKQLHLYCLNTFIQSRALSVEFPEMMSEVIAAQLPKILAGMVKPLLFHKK", "test": "Transactivation of progesterone responsive promoters (3xPRE-Luc, MMTV-Luc) by PRA in SHM cells", "conditions": "10 nM progesterone, increasing dose of His-PSF vector", "procedure": "(§1) FIG. 4. PSF inhibit transactivation of PR but not estrogen receptor (ER). (A) SHM cells were transient cotransfected with PRA or PRB expression vectors with or without increasing dose (0.05, 0.1 and 0.2 μg) of His-PSF, together with 3×PRE (upper) or MMTV (lower) luciferase reporter vector. Four hours after transfection, culture medium was replaced with fresh DMEM containing 10 nM progesterone and the incubation continued for at least 30 hours. (B) SHM cells were transiently cotransfected with ERα or ERβ expression vector with (0.2 μg) or without His-PSF, together with 3×ERE luciferase reporter vector. Four hours after transfection, culture medium was replaced with fresh DMEM with (solid bar) or without (empty bar) 10 nM estrodial and incubation continued for at least 30 hours. Luciferase activity was measured and normalized by β-galatosidase activity. […]\n(§2) For immunoprecipitation of the endogenous PR and PSF, T47D cells cultured in 150 mm dishes were lysed in 800 μl NETN buffer containing 150 mM NaCl plus protease inhibitor cocktail. […] Gels were treated with Enhancer (NEN, Boston, US) dried and analyzed by autoradiography. • Cell culture and transient transfection: SHM cells and 293T cells were maintained in DMEM plus 5% FCS (Sigma) as described before (22). […] Luciferase activity was determined by using the luciferin reagent (Promega) according to manufacture's protocol. […]"}, "ERα": {"target": "T2, ERα (Homo sapiens, UniProt P03372)", "T2 construct": "expressed in transfected cells; host or cells: SHM (Syrian hamster myocyte) cells", "T2 sequence (P03372 1-595)": "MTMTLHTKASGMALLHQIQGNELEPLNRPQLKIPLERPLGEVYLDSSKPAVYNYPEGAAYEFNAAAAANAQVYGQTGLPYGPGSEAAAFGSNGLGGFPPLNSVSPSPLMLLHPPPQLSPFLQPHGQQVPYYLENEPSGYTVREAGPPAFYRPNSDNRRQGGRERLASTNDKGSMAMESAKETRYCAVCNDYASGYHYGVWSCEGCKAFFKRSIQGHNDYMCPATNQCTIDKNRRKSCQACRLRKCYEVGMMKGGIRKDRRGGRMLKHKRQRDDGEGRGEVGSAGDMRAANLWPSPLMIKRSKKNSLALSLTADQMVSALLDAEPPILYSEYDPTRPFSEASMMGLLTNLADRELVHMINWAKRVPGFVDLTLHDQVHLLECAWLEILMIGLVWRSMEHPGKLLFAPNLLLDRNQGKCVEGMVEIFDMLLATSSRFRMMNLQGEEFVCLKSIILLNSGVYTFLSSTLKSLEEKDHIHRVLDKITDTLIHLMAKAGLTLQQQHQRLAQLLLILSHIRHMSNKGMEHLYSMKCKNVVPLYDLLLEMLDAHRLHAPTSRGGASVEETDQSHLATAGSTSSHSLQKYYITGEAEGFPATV", "test": "ERα transactivation, 3xERE luciferase reporter in SHM cells", "conditions": "3xERE promoter", "procedure": "as §1, §2"}, "PR protein": {"system": "PR protein", "test": "PR protein levels on over-expression of PSF in 293T cells", "conditions": "over-expression in 293T cells"}}}
{"molecule": "B1", "values": [{"measurement": "PRA transactivation of MMTV and 3xPRE promoters", "setting": "PRA", "result": "potently inhibited"}, {"measurement": "inhibitory effects on ERα", "setting": "ERα", "result": "not observed"}, {"measurement": "PR protein levels", "setting": "PR protein", "result": "reduced PR protein levels"}]}
